Paper doi:10.1101/2021.12.06.471412 (bioRxiv, 2021)

T1: purified human TRAP1 (human, UniProt Q12931 60-704)
T1 sequence: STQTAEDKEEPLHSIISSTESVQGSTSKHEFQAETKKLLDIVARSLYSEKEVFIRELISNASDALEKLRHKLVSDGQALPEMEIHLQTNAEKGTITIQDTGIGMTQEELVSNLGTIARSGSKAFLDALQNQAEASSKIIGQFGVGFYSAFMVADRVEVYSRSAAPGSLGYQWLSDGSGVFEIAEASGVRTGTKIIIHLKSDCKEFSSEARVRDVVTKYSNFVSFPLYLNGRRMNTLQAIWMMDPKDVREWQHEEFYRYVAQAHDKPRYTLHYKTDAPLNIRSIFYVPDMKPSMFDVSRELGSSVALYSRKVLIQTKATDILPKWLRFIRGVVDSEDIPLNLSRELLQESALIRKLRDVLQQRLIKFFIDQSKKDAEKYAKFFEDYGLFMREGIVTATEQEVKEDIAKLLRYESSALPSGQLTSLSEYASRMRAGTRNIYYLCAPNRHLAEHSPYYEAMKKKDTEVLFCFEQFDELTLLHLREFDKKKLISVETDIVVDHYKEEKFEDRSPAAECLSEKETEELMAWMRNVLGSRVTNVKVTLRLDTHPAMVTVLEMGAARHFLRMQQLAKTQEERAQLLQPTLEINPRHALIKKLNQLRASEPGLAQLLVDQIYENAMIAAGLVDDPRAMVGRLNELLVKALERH

T2: recombinant mature human OSCP (human, UniProt P48047 24-213)
T2 sequence: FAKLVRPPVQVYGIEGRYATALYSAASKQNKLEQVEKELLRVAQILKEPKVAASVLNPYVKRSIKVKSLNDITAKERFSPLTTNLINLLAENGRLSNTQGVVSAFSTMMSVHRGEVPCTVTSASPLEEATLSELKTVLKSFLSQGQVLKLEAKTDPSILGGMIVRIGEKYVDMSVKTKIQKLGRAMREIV


Experiments:
[1] = molecular target: T1, purified human TRAP1; experiment: far-Western, overlay or dot blot
[2] = molecular target: T2, recombinant mature human OSCP; experiment: SPR

Row | Binder | binding result [1] | binding result [2]
1 | F-ATP synthase subunit b (bovine heart) (natural protein) PVPPLPEHGGKVRFGLIPEEFFQFLYPKTGVTGPYVLGTGLILYLLSKEIYVITPETFSAISTIGFLVYIVKKYGASVGEFADKLNEQKIAQLEEVKQASIKQIQDAIDMEKSQQALVQKRHYLFDVQRNNIAMALEVTYRERLHRVYREVKNRLDYHISVQNMMRQKEQEHMINWVEKRVVQSISAQQEKETIAKCIADLKLLSKKAQAQPVM | binds | –
2 | F-ATP synthase subunit OSCP (bovine heart) (natural protein) FAKLVRPPVQIYGIEGRYATALYSAASKQNKLEQVEKELLRVGQILKEPKMAASLLNPYVKRSVKVKSLSDMTAKEKFSPLTSNLINLLAENGRLTNTPAVISAFSTMMSVHRGEVPCTVTTASALDEATLTELKTVLKSFLSKGQVLKLEVKIDPSIMGGMIVRIGEKYVDMSAKTKIQKLSRAMREIL | binds | –
3 | F-ATP synthase subunit g (bovine heart) (natural protein) MAEFVRNLAEKAPALVNAAVTYSKPRLATFWYYAKVELVPPTPAEIPTAIQSLKKIINSAKTGSFKQLTVKEALLNGLVATEVWMWFYVGEIIGKRGIIGYDV | binds | –
4 | recombinant mature human CyPD (natural protein) not shown | – | binds
5 | F-ATP synthase subunit α (bovine heart) (natural protein) QKTGTAEVSSILEERILGADTSVDLEETGRVLSIGDGIARVHGLRNVQAEEMVEFSSGLKGMSLNLEPDNVGVVVFGNDKLIKEGDIVKRTGAIVDVPVGEELLGRVVDALGNAIDGKGPIGSKARRRVGLKAPGIIPRISVREPMQTGIKAVDSLVPIGRGQRELIIGDRQTGKTSIAIDTIINQKRFNDGTDEKKKLYCIYVAIGQKRSTVAQLVKRLTDADAMKYTIVVSATASDAAPLQYLAPYSGCSMGEYFRDNGKHALIIYDDLSKQAVAYRQMSLLLRRPPGREAYPGDVFYLHSRLLERAAKMNDAFGGGSLTALPVIETQAGDVSAYIPTNVISITDGQIFLETELFYKGIRPAINVGLSVSRVGSAAQTRAMKQVAGTMKLELAQYREVAAFAQFGSDLDAATQQLLSRGVRLTELLKQGQYSPMAIEEQVAVIYAGVRGYLDKLEPSKITKFENAFLSHVISQHQALLSKIRTDGKISEESDAKLKEIVTNFLAGFEA | binds | –
